Measured values published in the nanobody polyreactivity screen of Harvey et al. (2022).

Assay: yeast display, Sf9 membrane polyspecificity reagent, FACS + sequencing; frameworks hold sequencing errors
In short: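 Galactose-induced (36–48 hours) yeast carrying a synthetic nanobody display library were exposed to 10% biotinylated, detergent-solubilized Sf9 membrane reagent at 4 °C for 1 hour. FACS followed streptavidin microbead enrichment, using low and high (top ~1%) gates for expression (anti-HA) and reagent binding (streptavidin). Colony PCR, MiSeq 2 × 250 sequencing and CDR-length filtering followed. Labels for polyreactivity reflect the gate of origin.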

Sequence | polyreactivity (PSR sort gate)
QVQLVESGGGLVQAGGSLRLSCAASGFIFDGYTMGWYRQAPGKERELVAAITTSGTSTYYADSVKGRFTISRDNAKNTVYLQMNSLKPEDTADYYCAARQYRHRVKYYYWGQGTQVTVSS | high polyreactivity
QVQLVESGGGLVQAGGSLRLSCAASGFIFDLYAMGWYRQAPGKERELVAAITYSGGSTYYADSVKGRFTISRDNAKNTVYLQMNSLKPEDTAVYYCATVEKFYEYDHWGQGTQVTVSS | low polyreactivity
QVQLVESGGGLVQAGGSLRLSCAASGFIFDNYAMGWYRQAPGKERELVAAISRSGGSTYYADSVKGRFTISRDNAKNTVYLQMNSLKPEDTAVYYCAARGKFGIVRYDYWGQGTQVTVSS | high polyreactivity
QVQLVESGGGLVQAGGSLRLSCAASGFIFDNYAMGWYRQAPGKERELVAAISRSGGSTYYADSVKGRFTISRDNAKNTVYLQMNSLKPEDTAVYYCATSGPRGWSLHDYWGQGTQVTVSS | high polyreactivity
QVQLVESGGGLVQAGGSLRLSCAASGFIFDRNAMGWYRQAPGKEREFVAAITRRGGTTYYADSVKGRFTISRDNAKNTVYLQMNSLKPEDTAVYYCAATYLHVYRRRFYYWGQGTQVTVSS | high polyreactivity
QVQLVESGGGLVQAGGSLRLSCAASGFIFDSYAMGCYRQAPGKETELVAAISYSGGNTYYADSVKGRFTISRDNAQITVYLQMNSLKPEDTAFYYCAAEWSDSRWWRLWWYGEDDYWGQGTQVTVSS | high polyreactivity
QVQLVESGGGLVQAGGSLRLSCAASGFIFDSYAMGWYRQAPGKERELVAAISWSGSSTYYADSVKGRFTISRDNAKNTVYLQMNSLKPEDTAVYYCAALVYPYWGCSMYYWGQGTQVTVSS | high polyreactivity
QVQLVESGGGLVQAGGSLRLSCAASGFIFDSYAMGWYRQAPGKERELVAAITTSGGRSYYADSVKGRFTISRDNAKNTVYLQMNSLKPEDTAVYYCAAKYTARWGFDYWGQGTQVTVSS | high polyreactivity
QVQLVESGGGLVQAGGSLRLSCAASGFIFDSYAMGWYRQAPGKERELVAAITYSGSSTYYADSVKGRFTISRDNAKNTVYLQMNSLKPEDTAVYYCAAVWRYSHLYGYWGQGTQVTVSS | high polyreactivity
QVQLVESGGGLVQAGGSLRLSCAASGFIFDVYAMGWYRQAPGKERELVAAISSSGGRTYYADSVKGRFTISRDNAKNTVYLQMNSLKPEDTAVYYCAAKTHSRTKVYTADYWGQGTQVTVSS | high polyreactivity
QVQLVESGGGLVQAGGSLRLSCAASGFIFDVYAMGWYRQAPGKERELVAAITGSGSITYYADSVKGRFTISRDNAKNTVYLQMNSLKPEDTAVYYCAALGPTQDRDYWGQGTQVTVSS | high polyreactivity
QVQLVESGGGLVQAGGSLRLSCAASGFIFDYNAMGWYRQAPGKERELVAAISWSGSRTYYAVSVKGRFTISRDNAKNTVYLQMNSLKPEDTAVYYCAAEWSGEAAWQVGAEDDYWGQGTQVTVSS | low polyreactivity
QVQLVESGGGLVQAGGSLRLSCAASGFIFDYNVMGWYRQAPGKKGSWVAAISWSGGSTYYADSVKGRFTISRDNAKNTVYLQMNSLKPEDTAVYYCAARGTSTYRGTGRYDYWGQGTQVTVSS | high polyreactivity
QVQLVESGGGLVQAGGSLRLSCAASGFIFDYYAMGWYRQAPGKERELVAAITSRGGSTYYADSVKGRFTISRDNAKNTVYLQMNSLKQEDTAVYYCAARRRSAEYNYWGHGTQVTVSS | high polyreactivity
QVQLVESGGGLVQAGGSLRLSCAASGFIFEAYAMGWYRQAPGKERELVAAIDSGGSTDYADSVKGRFTISRDNAKNTVYLQMNSLTPEDTAVYYCIAERAYLLWYNFDYWGQGTKVTVSS | low polyreactivity
QVQLVESGGGLVQAGGSLRLSCAASGFIFEGYAMGWYRQAPGKERELVAAINWSGTTTYYADSVKGRFTISRDNAKNTVYLQMNSLKPEDTAVYYCNARYYVLRGYDYWGQGTQVTVSS | low polyreactivity
QVQLVESGGGLVQAGGSLRLSCAASGFIFEPYAMGWYRQAPGKERELVAAISSGGSTYADSVKGRFTISRDNAKNTVYLQMISLKPEDTAVYYCAADSYYSVWGFYYWGQGTQVTVSS | low polyreactivity
QVQLVESGGGLVQAGGSLRLSCAASGFIFERNAMGWYRQAPGKERELVAGISNNGGSTYYADSVKGRFTISRDNAKNTVYLQMNSLKPEDTAVYYCARDPNDDNSFPYDYWGQGTQVTVSS | low polyreactivity
QVQLVESGGGLVQAGGSLRLSCAASGFIFETYAMGWYRQEPGKERELVAAISRGASTYYADSVKGRFTISRDNAKNTVYLQMNSLKPEDTAVYYCAAKRLSWHRYGYWGQGTQVTVSS | low polyreactivity
QVQLVESGGGLVQAGGSLRLSCAASGFIFEWNAMGWYRQAPGKERELVASITFGGGNTYYADSVKGRFTISRDNAKNTVYLQMNSLKPEDTAVYYCAADDGVTYRGIIFSYLGQGTQVTVSS | low polyreactivity
QVQLVESGGGLVQAGGSLRLSCAASGFIFEWYDMGWYRQAPGKERELVASISWSGGSTYYADSVKGRFTISRDNAKNTVYLQMNSLKPEDTAVYYCNTPSYTYWHWYDYWGQGTQVTVSS | high polyreactivity
QVQLVESGGGLVQAGGSLRLSCAASGFIFFEYAMGWYRQAPGKERELVAAISWSDDTTYYADSVKGRFTISRDNAKNTVYLQMNSLNPEDTAVYYCNVRYWGFYDYDYWGQGSQVTVSS | low polyreactivity

Sequence | polyreactivity (PSR sort gate)
QVQLVESGGGLVQAGGSLRLSCAASGFIFFINDMGWYRQAPGTERELVAAISWSGGSTYYADSVKGRFTISRDNAKNTVYLQMNSLKPEDTAVYYCNTDVPTAQYDYWGQGTQVTVSS | low polyreactivity
QVQLVESGGGLVQAGGSLRLSCAASGFIFGANAMGWYRQAPGKERELVADINRGSTYYADSVKGRFTISRDNAKNTVYLQMNSLKPEDTAVYYCNRVYTQTFNPWGFEYWGQGTQVTVSS | high polyreactivity
QVQLVESGGGLVQAGGSLRLSCAASGFIFGDYAMGWYRQAPGKERELVADINWTGGSTYYADSVKGRFTISRDNAKNTVYLQMNSLKPEDTAVYYCAKDDYAFLITWVDYWGQGTQVTVSS | low polyreactivity
QVQLVESGGGLVQAGGSLRLSCAASGFIFGGDPMGWYRQARGSDRELVAAISSSGGRTYYADSVKRRFTISRDNAKNNVYLQLNSLKPEDTAVYSCAVPRFGSAAKRYYYWGQGTQVTVTS | high polyreactivity
QVQLVESGGGLVQAGGSLRLSCAASGFIFGGYAMGWYRQAPGKEREFVAAIRQRGGSTYYADSVKGRFTISRDNAKNTVYLQMNSLKPEDTAVYYCAATVRAVQASVRYGYWGQGTQVTVSS | high polyreactivity
QVQLVESGGGLVQAGGSLRLSCAASGFIFGGYAMGWYRQAPGKERELVAAISRSGGSTYYADSVKGRFTISRDNAKNTVDLQINSLKPEDTAVYYCYAVTRRQGFNYWGQGTQVTVSS | high polyreactivity
QVQLVESGGGLVQAGGSLRLSCAASGFIFGGYAMGWYRQAPGKERELVAAISYGGGSTYYADSVNGRFTISRYNAKNTVYLQMNSLKPEDTAVYYCAADIPGYRYTGYRRGYWGQGTQVTVSS | high polyreactivity
QVQLVESGGGLVQAGGSLRLSCAASGFIFGHNAMGWYRQAPGKERELVADITWSGGSTYYADSVKGRFTISRDNAKNTVYLQMNSLKPEDTAVYYCNARGRASATGRRGRPDPFGYWGQGTQVTVSS | high polyreactivity
QVQLVESGGGLVQAGGSLRLSCAASGFIFGHNAMGWYRQAPGKQRELVAAITYSGGSTYYADSVKGRFTISRDNAKNTVYLQMNSLKPEDTAVSYSAASNQWSSTYLTYGYYYWGQGTQVTVSS | low polyreactivity
QVQLVESGGGLVQAGGSLRLSCAASGFIFGKYAMGWYRQAPRKERELGAAISKSGGSTYYADSVKGRFTISRDNAKNTVYLQMNSLKPEDTAVYYCAARSLGHYGSWGQGTQVTVSS | high polyreactivity
QVQLVESGGGLVQAGGSLRLSCAASGFIFGLYAMGWYRQAPGKETELVATISWDGGSTYYADSVKGRFTISRDNAKNTVYLQMNSLKPEDTAVYYCAATYLYRSPYVPMDYWGQGTQVTVSS | low polyreactivity
QVQLVESGGGLVQAGGSLRLSCAASGFIFGLYDMGWDRQAPGKERELVATISDSGGDTYYSDSVKGRFTISRDNAKNTVYLQMNSMKPEDTAVYYCAAKYVYGRGIRAYDYWVQGTQVTVSS | high polyreactivity
QVQLVESGGGLVQAGGSLRLSCAASGFIFGNYAMGWYRQAPGKERELVATITRRGGRTYYADSVKGRFTISRDIAKNTVYLQMTSLKPEDTAVYYCNARPSRWAREGYWGQGTQVTVSS | high polyreactivity
QVQLVESGGGLVQAGGSLRLSCAASGFIFGPNAMGWYRQAPGKERELVAAITLSGGSTYYADSVKGRFTISRDNAKNTVYLQMNSLKPEDTAVYYCATTYYHNYLLYGYWGQGTQVTVSS | low polyreactivity
QVQLVESGGGLVQAGGSLRLSCAASGFIFGQYAMGWYRQAPGKERELVATINRSGGSTYYADSVKGRFTISRDNAKNTVYLQMNSLKPEDTAVYYCAKGPRISSSLRYSAYWKMNYWGQGTQVTVSS | high polyreactivity
QVQLVESGGGLVQAGGSLRLSCAASGFIFGRYAMGWYRQAPGKERELVAAISSGDDTDYADSVKGRFTISRYNAKNTVYLLMNSLIPEDTAVYYCARSRFWSPVNYRRTIEFDSWGQGTQVTVSS | low polyreactivity
QVQLVESGGGLVQAGGSLRLSCAASGFIFGRYAMGWYRQAPGKERELVAAITSGGRTYYADSVKGRFTISRDNAKNTVYLQMNSLKPEDTAVYYCAKRVGRYWTAGYYWGQGTQVTVSS | high polyreactivity
QVQLVESGGGLVQAGGSLRLSCAASGFIFGRYTMGWYSQAPGKERELVAAISSRGGSTYYADSVKGRFTISRDNAKNTVYLQMNSLKPEDTAVYYCAADEIYGYDYWGQGTQVTVSS | high polyreactivity
QVQLVESGGGLVQAGGSLRLSCAASGFIFGSIVMGWYRQAPGKERELVAAISKRGGTTYYADSVKGRFTISRDNAKNPVYLQMNSLKPEDTAVYYCAVEWCFRRNGRMDYWGQGTQVTVSS | high polyreactivity
QVQLVESGGGLVQAGGSLRLSCAASGFIFGSYAMGWYRQAPGKERELVAAITRSGGNTYYADSVKVRFTISRDNAKNTVYLQMNSLKPEDTAVYYCAAYSGYWYDYWGQGTQVTVSS | high polyreactivity
QVQLVESGGGLVQAGGSLRLSCAASGFIFGTYAMGWYIQAPGKERELVAAISTGATYYADSVKGRFTISRDNAKNTVYLQMNSLKPEDTAVYYCAAPRTYYLRYRWYLYEGDYWGQGTQVTVTS | low polyreactivity
